Assay results: paper PMC4321732 (Structure (London, England : 1993), 2015)
*1 amine or outer side, *2 acyl side, *3 side chain or, on linkers, in order; H or OH if unused. Where no end group is shown, it is not given here. [ ]: non-standard residue; d: D form. KCme2 = N-dimethylated aminoethylcysteine, CN(C)CCSC[C@H](N[*:1])C(=O)[*:2]; Me2 = dimethyl group on the Lys side-chain amine

B1: p53K382me2 peptide (residues S376-T387 of p53) (peptide, UniProt P04637 376-387, looked up)
peptide: STSRHKK(Me2)LMFKT
B2: p53KC370me2 peptide (recombinant, dimethyllysine analogue at 370) (peptide)
peptide: GHMRAHSSHLCSKKGQST
modifications: not fully specified (residue 11)
B3: p53L369GKC370me2 peptide (peptide)
peptide: GHMRAHSSHGCSKKGQST
modifications: not fully specified (residue 11)
B4: p53KC370me2K372G peptide (peptide)
peptide: GHMRAHSSHLCSGKGQST
modifications: not fully specified (residue 11)
B5: p53H365GKC370me2 peptide (peptide)
peptide: GHMRAGSSHL[KCme2]SKKGQST
B6: p53KC370me2K373G peptide (peptide)
peptide: GHMRAHSSHLCSKGGQST
modifications: not fully specified (residue 11)
B7: p53H368GKC370me2 peptide (peptide)
peptide: GHMRAHSSGLCSKKGQST
modifications: not fully specified (residue 11)
B8: p53K370me2K382me2 peptide (residues S366-K386) (peptide, UniProt P04637 366-386, looked up)
peptide: SSHLKSKKGQSTSRHKKLMFK
modifications: dimethyllysine at 370; dimethyllysine at 382
B9: p53KC382me2 peptide (recombinant, dimethyllysine analogue at 382) (peptide)
peptide: GHMSTSRHKCLMFKT
modifications: not fully specified (residue 10)
B10: p53KC382me2L383G peptide (peptide)
peptide: GHMSTSRHKCGMFKT
modifications: not fully specified (residue 10)
B11: p53H380GKC382me2 peptide (peptide)
peptide: GHMSTSRGKCLMFKT
modifications: not fully specified (residue 10)
B12: p53R379GKC382me2 peptide (peptide)
peptide: GHMSTSGHKCLMFKT
modifications: not fully specified (residue 10)
B13: p53K381GKC382me2 peptide (peptide)
peptide: GHMSTSRHGCLMFKT
modifications: not fully specified (residue 10)
B14: p53KC382me2F385G peptide (peptide)
peptide: GHMSTSRHKCLMGKT
modifications: not fully specified (residue 10)
B15: p53K370me2 peptide (residues R363-T377 of p53) (peptide, UniProt P04637 363-377, looked up)
peptide: RAHSSHLK(Me2)SKKGQST

Molecular target: T1, tandem Tudor domain (TTD) of human 53BP1 (human, UniProt Q12888 1484-1603)
T1 sequence (Q12888 1484-1603): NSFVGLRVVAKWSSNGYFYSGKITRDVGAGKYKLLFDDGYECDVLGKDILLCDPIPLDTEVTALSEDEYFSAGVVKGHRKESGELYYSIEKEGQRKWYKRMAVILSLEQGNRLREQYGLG
Assay: NMR titration

Question: Does B1 bind?
Answer: binds

Question: Does B2 bind?
Answer: binds

Question: Does B3 bind?
Answer: binds

Question: Does B4 bind?
Answer: binds

Question: Does B5 bind?
Answer: binds

Question: Does B6 bind?
Answer: binds

Question: Does B7 bind?
Answer: binds

Question: Does B8 bind?
Answer: binds

Question: Does B9 bind?
Answer: binds

Question: Does B10 bind?
Answer: binds

Question: Does B11 bind?
Answer: binds

Question: Does B12 bind?
Answer: binds

Question: Does B13 bind?
Answer: binds

Question: Does B14 bind?
Answer: binds

Molecular target: T1, tandem Tudor domain (TTD) of human 53BP1
Assay: solution NMR structure

Question: Does B15 bind?
Answer: binds
